Test results: patent US20260217796A1 (NANJING GENSCRIPT BIOTECH, published 2026)

B1: 15G4-4 (antibody, V domains shown)
VH: QSVEESGGRLVTPGTPLTLTCTVSGFSLNSYTVNWVRQAPGKGLEWIGFISGGSGITNYATWAKGRFTISKTSTTVDLKLPSPTTEDTATYFCARGRYPGYGGDDYEDYYFNLWGQGTLVTVSS
VL: DVVMTQTQASVSAAVGGTVTIKCQASESIGSYLAWYQQKPGQPPRLLIYQASTLASGVSSRFKGSGSGTQFTLTISDLECDDAATYYCQGEFSCDGAHCNAFGGGTEVVVK
notes: Expressed recombinantly in ExpiCHO-S cells, purified on protein A as IgG and detected with anti-rabbit IgG (Fc-specific); also called anti-AAV2 rabbit monoclonal antibody 15G4-4; combination B
B2: 19E10-3 (antibody, V domains shown)
VH: QSLEESGGDLVKPGSSLTLTCTASRFSFSGDYDMCWVRQAPGKGLEWIACIGAGDAITYYTNWARGRFTITYTSSTTMTLQLTSLTVADTAAYFCAAGADFAFKLWGPGTLVTVSS
VL: DIVMTQTPASVEAAVGGTVTIKCQASQSIMSLLAWYQQKPGQPPKLLIYEASKLASGVPSRFSGSGSGTQFTLTISDLECADAATYYCQGYVESSGRHYRFWAFGGGTEVVVK
notes: Expressed recombinantly in ExpiCHO-S cells, purified on protein A as IgG and detected with anti-rabbit IgG (Fc-specific); also called anti-AAV2 rabbit monoclonal antibody 19E10-3; combination C
B3: 33G5-3 (antibody, V domains shown)
VH: QSVEESGGRLVTPGTPLTLTCTVSGIDLSSYAMSWVRQAPGKGLEWIGTINSDNYRYFGSWAKGRFTISKTSTTVDLKITSPTTEDTATYFCARQRGTSSGNAMDLWGPGTLVTVSS
VL: DVVMTQTPASVSAALGGTVTIKCQASQSIGSYLNWYQQKPGQPPKLLIYAASTLAYGVSSRFRGSGSGTEFTLTISDLECADAATYYCQTYYISDSSSHVFGGGTEVVVK
notes: Expressed recombinantly in ExpiCHO-S cells, purified on protein A as IgG and detected with anti-rabbit IgG (Fc-specific); also called anti-AAV2 rabbit monoclonal antibody 33G5-3; Biotin-33G5-3
B4: 8H8-1 (antibody, V domains shown)
VH: QSLVESGGGLVQPEGSLTLTCTASGFSFSNVYYMCWVRQAPGKGPDWIACIYINADSTYYPSWATGRFTISKTSSTTVTLQMTSLTAADTATYFCARVAAYYDVYFNLWGPGTVVTVSS
VL: AVVMTQTASPVSAAVGGTVTINCQASQSISSSYLSWYQQKPGQPPKLLIYYASILTSGVPSRFKGSGDGTEYSLTISGVQCDDAATYYCLYGRYSGASIDTVFGGGTEVVVK
notes: Expressed recombinantly in ExpiCHO-S cells, purified on protein A as IgG and detected with anti-rabbit IgG (Fc-specific); also called anti-AAV2 rabbit monoclonal antibody 8H8-1; combination A

biological target: T1, recombinant AAV2 virus-like particles (VLPs) of capsid proteins VP1, VP2 and VP3 (AAV2, UniProt P03135 1-735; P03135 139-735; P03135 203-735); test: indirect ELISA, plate coated with 1 ug/mL AAV2 VLP, 3-fold antibody dilutions from 1 ug/mL
T1 construct: also called AAV2 VLP; antigen
T1 sequence (P03135 whole entry, chain 1 of 3): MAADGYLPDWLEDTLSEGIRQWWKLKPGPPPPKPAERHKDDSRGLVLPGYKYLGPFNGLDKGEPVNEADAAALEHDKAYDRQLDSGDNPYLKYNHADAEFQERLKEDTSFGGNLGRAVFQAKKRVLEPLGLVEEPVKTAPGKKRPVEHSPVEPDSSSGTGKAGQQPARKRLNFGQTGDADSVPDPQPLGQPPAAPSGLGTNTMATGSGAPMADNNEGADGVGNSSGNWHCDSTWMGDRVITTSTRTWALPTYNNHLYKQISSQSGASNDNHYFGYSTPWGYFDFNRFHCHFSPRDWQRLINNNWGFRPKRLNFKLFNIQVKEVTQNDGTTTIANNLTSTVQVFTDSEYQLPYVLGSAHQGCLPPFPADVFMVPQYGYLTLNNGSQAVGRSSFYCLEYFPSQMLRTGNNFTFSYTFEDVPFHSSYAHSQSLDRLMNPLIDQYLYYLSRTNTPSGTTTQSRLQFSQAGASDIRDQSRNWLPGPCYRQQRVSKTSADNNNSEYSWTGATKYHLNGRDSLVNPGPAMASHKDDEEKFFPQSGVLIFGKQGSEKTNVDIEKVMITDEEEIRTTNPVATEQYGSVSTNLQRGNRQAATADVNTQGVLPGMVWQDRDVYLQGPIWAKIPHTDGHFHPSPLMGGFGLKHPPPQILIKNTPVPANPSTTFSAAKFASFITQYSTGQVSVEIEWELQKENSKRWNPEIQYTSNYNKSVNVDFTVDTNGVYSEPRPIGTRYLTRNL
T1 sequence (P03135 139-735, tags left off, chain 2 of 3): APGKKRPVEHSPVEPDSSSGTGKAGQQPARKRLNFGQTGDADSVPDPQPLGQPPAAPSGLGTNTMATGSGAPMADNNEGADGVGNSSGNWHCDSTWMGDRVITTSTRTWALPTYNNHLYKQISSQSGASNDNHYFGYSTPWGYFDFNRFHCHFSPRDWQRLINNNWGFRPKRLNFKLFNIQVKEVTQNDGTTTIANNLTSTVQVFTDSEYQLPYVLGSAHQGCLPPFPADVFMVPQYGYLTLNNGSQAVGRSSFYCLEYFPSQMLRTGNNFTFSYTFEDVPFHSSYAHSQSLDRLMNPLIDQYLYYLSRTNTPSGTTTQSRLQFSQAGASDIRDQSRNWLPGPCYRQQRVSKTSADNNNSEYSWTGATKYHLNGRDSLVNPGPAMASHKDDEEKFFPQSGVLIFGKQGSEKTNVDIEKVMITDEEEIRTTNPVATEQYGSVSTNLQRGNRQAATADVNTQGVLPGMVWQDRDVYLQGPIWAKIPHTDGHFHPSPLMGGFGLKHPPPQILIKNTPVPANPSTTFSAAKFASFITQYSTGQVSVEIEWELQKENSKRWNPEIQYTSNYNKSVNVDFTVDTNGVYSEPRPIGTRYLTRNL
T1 sequence (P03135 203-735 limits assumed, chain 3 of 3): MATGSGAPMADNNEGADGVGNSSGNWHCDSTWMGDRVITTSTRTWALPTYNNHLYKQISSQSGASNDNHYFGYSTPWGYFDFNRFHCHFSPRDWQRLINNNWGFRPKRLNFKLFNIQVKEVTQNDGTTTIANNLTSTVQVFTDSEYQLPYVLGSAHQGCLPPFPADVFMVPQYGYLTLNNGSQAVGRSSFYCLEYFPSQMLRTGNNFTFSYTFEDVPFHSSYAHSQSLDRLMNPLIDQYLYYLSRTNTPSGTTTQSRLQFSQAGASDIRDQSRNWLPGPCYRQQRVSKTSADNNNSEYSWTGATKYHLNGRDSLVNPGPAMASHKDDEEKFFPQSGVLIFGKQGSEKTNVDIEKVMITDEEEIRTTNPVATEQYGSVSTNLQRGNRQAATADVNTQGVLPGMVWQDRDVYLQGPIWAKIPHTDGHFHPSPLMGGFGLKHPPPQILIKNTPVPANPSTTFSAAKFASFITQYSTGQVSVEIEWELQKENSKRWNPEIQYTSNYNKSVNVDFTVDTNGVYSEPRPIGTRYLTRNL

| Binder | EC50 [ng/mL] |
| --- | --- |
| B1 | 1.77 |
| B2 | 3.94 |
| B3 | 1.62 |
| B4 | 1.46 |
